Key:
Settings in all cases: 20 nM; 72 h
[1] = test system: MCF10A; assay: one-nucleolus phenotype percent effect (relative to siNT 0% and siNOL11 100%); higher = more cells with one nucleolus (ribosome biogenesis inhibition)
Description: (§1)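 After 72 h, cells were fixed and stained with Hoechst and anti-fibrillarin, and nucleoli per nucleus were counted with CellProfiler. Values are plate-adjusted percent effect for the one-nucleolus and 5+ nucleoli phenotypes, normalised to siNT (0%) and to the positive controls siNOL11 or siKIF11 (100%), as the mean of biological triplicates. Percent viability is the nuclei count relative to siNT.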

[2] = test system: MCF10A; assay: percent viability (nuclei count relative to siNT); higher = more viable cells
Description: as §1

[3] = test system: MCF10A; assay: 5+ nucleoli phenotype percent effect (relative to siNT 0% and siKIF11 100%); higher = more cells with five or more nucleoli
Description: as §1

Sequence	one-nucleolus phenotype percent effect [1]	percent viability [2]	5+ nucleoli phenotype percent effect [3]
AACAUCACUGCAAGUCUUAACA [hsa-miR-499b-3p]	-24.7%	77%	-7.16%
AGUGGGAGGCCAGGGCACGGCA [hsa-miR-1233-1-5p]	24.3%	26.5%	-38.8%
GUGGGUAGGGUUUGGGGGAGAGCG [hsa-miR-1229-5p]	-23.1%	67.9%	53.7%
UAUGGCUUUUCAUUCCUAUGUGA [hsa-miR-135b-5p]	21.8%	47.9%	-32.7%
GUCCUAGGAGGCUCCUCUG [hsa-miR-5571-3p]	6.57%	66.3%	-30%
CCACUGCCUAUGCCCCACAG [hsa-miR-6890-3p]	-16.6%	62.1%	-13.4%
UGGUAGAGCUGAGGACA [hsa-miR-4451]	-7.47%	16.3%	9.42%
UUAGGCCGCAGAUCUGGGUGA [hsa-miR-1295a]	8.73%	33.2%	-12.5%
UAAAAUUUGCAUCCAGGA [hsa-miR-4282]	-28.5%	66%	22.1%
AAUCGGACCCAUUUAAACCGGAG [hsa-miR-5188]	-9.59%	90.7%	10.2%
ACAGGCAGGAUUGGGGAA [hsa-miR-4514]	32.3%	18.4%	-12%
AAACCGUUACCAUUACUGAGUU [hsa-miR-451a]	-5.64%	69.8%	12.9%
CAAAGCGCUUCCCUUUGGAGC [hsa-miR-518d-3p]	42.6%	29.8%	-31.6%
CUGAAGCUCAGAGGGCUCUGAU [hsa-miR-127-5p]	39%	45.5%	-40.5%
UUACGGACCAGCUAAGGGAGGC [hsa-miR-4788]	-0.639%	43.7%	9.13%
GCCUCUCUCGGAGUCGCUCGGA [hsa-miR-3183]	-23.3%	77.6%	40%
CGUGUUCACAGCGGACCUUGAU [hsa-miR-124-5p]	6.24%	77.3%	-28.6%
UAGCAGCACAGAAAUAUUGGC [hsa-miR-195-5p]	13.4%	26.4%	-10.1%

Sequence	one-nucleolus phenotype percent effect [1]	percent viability [2]	5+ nucleoli phenotype percent effect [3]
CUGUAAUAUAAAUUUAAUUUAUU [hsa-miR-2054]	-17.6%	168%	28%
UGACCCACCCCUCUCCACCAG [hsa-miR-7114-3p]	6.96%	35.3%	-4.79%
GGACCCACCCGGCCGGGAAUA [hsa-miR-1180-5p]	-33.8%	75.2%	38.4%
CAGGCAGGUGUAGGGUGGAGC [hsa-miR-6893-5p]	-3.82%	31.2%	-6.16%
GAUAUUCAGAGGCUAGGUGG [hsa-miR-6074]	-6.04%	34.5%	-1.31%
CACCAUGGACGGUUUACC [hsa-miR-7153-3p]	62.9%	23.4%	-48.4%
UUACACACAACUGAGGAUCAUA [hsa-miR-3941]	7.76%	16.8%	0.22%
CUGACUGUUGCCGUCCUCCAG [hsa-miR-943]	-0.183%	62.9%	-13.7%
UUCCCUAUCUCACUCUCCUCAG [hsa-miR-6883-3p]	-14.4%	58.5%	20.1%
AACACUGGCCUUGCUAUCCCCA [hsa-miR-6757-3p]	30.1%	52.1%	-35%
GAGCUUUUGGCCCGGGUUAUAC [hsa-miR-208a-5p]	-31%	216%	45.1%
CUCUAGAGGGAAGCGCUUUCUG [hsa-miR-519c-5p]	1.39%	31.6%	-10.6%
UUCAGCAGGAACAGCU [hsa-miR-4291]	-4.14%	45.7%	-7.69%
AACGGCAAUGACUUUUGUACCA [hsa-miR-548al]	-4.22%	58.9%	-4.48%
UGCGCCUCGGGUGAGCAUG [hsa-miR-668-5p]	-14.2%	43.2%	37.3%
UGCGGCAGAGCUGGGGUCA [hsa-miR-6820-5p]	11.9%	16.9%	3.87%
UUUCCUACCCUACCUGAAGACU [hsa-miR-3685]	16.6%	36.6%	-32.6%
AGGAAGCAAGAGAACCCUGUGG [hsa-miR-6828-5p]	18.9%	26.9%	-41.5%
